Patent US20070248613A1 (MERCK, published 2007)
Where “and” joins values, the source holds several entries; their conditions need not be identical. Equal entries are not always repeated.

B1: 5H/I1-BMV-B11 scFv (scFv)
scFv: QVQLVQSGAEVKKPGSSVKVSCKASGGTFSSYAISWVRQAPGQGLEWMGGIIPLFDTSNYAQNFQGRITITADKSTSTAYMELSSLRFEDTAIYYCARDNPLLLAMDVWGKGTTVTVSSGGGGSGGGGSGGGGSDIQMTQSPSTLSASIGDRVTITCRASEGIYHWLAWYQQKPGKAPKLLIYKASSLASGAPSRFSGSGSGTDFTLTISSLQPDDFATYYCQQYSNYPLTFGGGTKLEIK
notes: also called scFv B11
B2: 5H/I1-BMV-D5 scFv (scFv)
scFv: QVQLVQSGAEVRKPGASVKVSCKASGDTFSSYAISWVRQAPGQGLEWMGGIIPIFGTANYAQKFQGRVTITADESTSTAYMELSSLRSEDTAIYYCARDNPTLLGSDYWGKGTLVTVSSGGGGSGGGGSGGGGSDIQMTQSPSTLSASIGDRVTITCRASEGIYHWLAWYQQKPGKAPKLLIYKASSLASGAPSRFSGSGSGTDFTLTISSLQPDDFATYYCQQYSNYPLTFGGGTKLEIK
notes: also called scFv D5
B3: D5 IgG (antibody, V domains shown)
VH: QVQLVQSGAEVRKPGASVKVSCKASGDTFSSYAISWVRQAPGQGLEWMGGIIPIFGTANYAQKFQGRVTITADESTSTAYMELSSLRSEDTAIYYCARDNPTLLGSDYWGKGTLVTVSS
VL: DIQMTQSPSTLSASIGDRVTITCRASEGIYHWLAWYQQKPGKAPKLLIYKASSLASGAPSRFSGSGSGTDFTLTISSLQPDDFATYYCQQYSNYPLTFGGGTKLEIK
notes: also called D5 IgG4; D5 antibody

How the values were obtained:
5-Helix [1] = molecular target: T1, 5-Helix (HIV-1); test: phage ELISA on biotinylated peptide captured on streptavidin plates
T1 construct: also called HIV-1 gp41-derived 5-Helix; biotinylated 5-Helix

[2] = molecular target: T2, gp41 of the HIV-1 HXB2 envelope (HIV-1 strain HXB2, UniProt P04578 512-856); test: cell-based or functional assay
[3] = molecular target: gp41 of the HIV-1 BaL envelope (HIV-1 strain BaL); test: cell-based or functional assay
5-Helix [4] = molecular target: T1, 5-Helix; test: SPR (Biacore)
[5] = molecular target: T2, gp41 of the HIV-1 HXB2 envelope; test: cell-based or functional assay; remark: listed apart in the source
[6] = molecular target: gp41 of the HIV-1 BaL envelope (HIV-1 strain BaL); test: cell-based or functional assay; remark: listed apart in the source
[7] = molecular target: gp41 of the HIV-1 89.6 envelope (HIV-1 strain 89.6); test: cell-based or functional assay
[8] = molecular target: gp41 of the HIV-1 MN-1 envelope (HIV-1 strain MN-1, UniProt P05877 514-856); test: cell-based or functional assay
[9] = molecular target: gp41 of the HIV-1 NL4-3 envelope (HIV-1 strain NL4-3); test: cell-based or functional assay

| Binder | binding result (5-Helix [1]) | IC50 (printed TC50), single cycle infectivity assay against HIV-HXB2 [2] [nM] | IC50, single cycle infectivity assay [2] | IC50, single cycle infectivity assay [3] | Kd (5-Helix [4]) [nM] | koff (5-Helix [4]) [s⁻¹] | kon (5-Helix [4]) [M⁻¹ s⁻¹] | IC50, single cycle infectivity assay against HIV-HXB2 [2] [nM] | D5 IgG IC50 (nM), single cycle infectivity assay [5] [nM] | D5 IgG IC50 (nM), single cycle infectivity assay [6] [nM] | D5 IgG IC50 (nM), single cycle infectivity assay [7] [nM] | D5 IgG IC50 (nM), single cycle infectivity assay [8] [nM] | D5 IgG IC50 (nM), single cycle infectivity assay [9] [nM] |
| --- | --- | --- | --- | --- | --- | --- | --- | --- | --- | --- | --- | --- | --- |
| B1 | binds | – | – | – | – | – | – | – | – | – | – | – | – |
| B2 | binds | 238 | 320 nM and 8 ug/ml | 600 nM and 15 ug/ml | – | – | – | – | – | – | – | – | – |
| B3 | – | – | – | – | 0.26 | 0.0001 | 390000 | 261 | 310 | 93 | 1750 | 393 | 226 |
